Measured values: article PMC8399836

Target: individual G6PD protein (g6pd region of the fused G6PD::6PGL enzyme from Giardia lamblia) (Giardia lamblia)
Experiment: SEC; size exclusion chromatography (gel filtration) of the purified individual G6PD protein; one peak with G6PD activity; column and buffer not told in the text shown

Substance: individual G6PD protein (g6pd region of the fused G6PD::6PGL enzyme from Giardia lamblia) (domain or fragment)
- stoichiometry N: 2
